B1: ChUGD (Capra hircus) (protein)
chain: MFEIKKICCIGAGYVGGPTCSVIAHMCPEIRVTVVDINESRINAWNSPTLPIYEPGLKEVVESCRGKNLFFSTNIDDAIKEADLVFISVNTPTKTYGMGKGRAADLKYIEACARRIVQNSHGYKIVTEKSTVPVRAAESIRRIFDANTKPNLNLQVLSNPEFLAEGTAIKDLKNPDRVLIGGDETPEGQRAVQALCAVYEHWVPREKILTTNTWSSELSKLTANAFLAQRISSINSISALCEATGADVEEVATAIGMDQRIGSKFLKASVGFGGSCFQKDVLNLVYLCEALNLPEVARYWQQVIDMNDYQRRRFASRIIDSLFNTVTDKKIAILGFAFKKDTGDTRESSSIYISKYLMDEGAHLHIYDPKVPREQIVVDLSHPGVSKDDQVARLVTISKDPYEACDGAHAVVICTEWDMFKELDYERIHKKMLKPAFIFDGRRVLDGLHNELQTIGFQIETIGKKVSSKRIPYAPSGEIPKFSLQDMPNKKPRV
notes: codon-optimized synthetic gene, N-terminal 6xHis tag, expressed in S. cerevisiae, crude soluble cell extract
B2: ZmUGD (Zymomonas mobilis) (protein)
chain: MRITMIGSGYVGLVSGACFSDFGHNVICVDHDQEKIALLQKGVMPIYEPGLADMVANNVKAGRLSFSNDLASSVKDADAVFIAVGTPSRRGDGHADLSYVFAAAKEIAASVSDNTVVVDKSTVPVGTGDEVERIIREIAPDKKIWVASNPEFLREGAAIGDFKRPDRIVIGTENPEAREIMQEIYRPLYLNQSPILFTSRRSAELIKYASNAFLATKITFINEMADLCEAVGGDVQDVARGIGADNRIGSKFLHAGPGYGGSCFPKDTLALLKTAENFATPLRVVESVVTANNIRKRAMARKVLQAIGKDMRGQKIGLLGLTFKPNTDDMRDAPSLALIQGLEDAGAIIHAYDPEGMTQARPLLPNVVFEDEPYKVAEKAEALVIVTEWDAFRALDLKRIAGLLKTPLLLDLRNIYTEEEAKKAGLVYHGIGRPHAG
notes: N-terminal 6xHis tag (pRSFDuet-1), expressed in E. coli BL21 (DE3), crude soluble cell extract (host has a predicted own UGD)

Legend:
Assay in all cases: UDP-GlcA formation by UHPLC, Michaelis-Menten fit, crude extract
Settings in all cases: 0.5 mM NAD+, 50 mM Tris-HCl pH 8.0, 30 °C, 0.5 g/L extract protein, 1-5 mM UDP-Glc
[1] = substrate: O=c1ccn([C@@H]2O[C@H](CO[P@@](=O)(O)O[P@@](=O)(O)O[C@H]3O[C@H](CO)[C@@H](O)[C@H](O)[C@H]3O)[C@@H](O)[C@H]2O)c(=O)[nH]1; type: biochemical, Capra hircus
Text: UDP-GlcA formation by UHPLC, Michaelis-Menten fit, crude extract on ChUGD

[2] = substrate: O=c1ccn([C@@H]2O[C@H](CO[P@@](=O)(O)O[P@@](=O)(O)O[C@H]3O[C@H](CO)[C@@H](O)[C@H](O)[C@H]3O)[C@@H](O)[C@H]2O)c(=O)[nH]1; type: biochemical, Zymomonas mobilis
Text: (§1) UDP-GlcA formation by UHPLC, Michaelis-Menten fit, crude extract on ZmUGD

[3] = substrate: O=c1ccn([C@@H]2O[C@H](CO[P@@](=O)(O)O[P@@](=O)(O)O[C@H]3O[C@H](CO)[C@@H](O)[C@H](O)[C@H]3O)[C@@H](O)[C@H]2O)c(=O)[nH]1; type: biochemical, Zymomonas mobilis; remark: listed apart in the source
Text: as §1

Protein | Km [1] | Km [2] | Km [3]
B1 | 841 µM |  | 
B2 |  | 2586 µM | 1234 µM

From publication PMC8617651, “Cloning, Expression and Characterization of UDP-Glucose Dehydrogenases” (Life, 2021)
